{
  "source": "paper PMC12316982",
  "about": "(Nature Communications, 2025)",
  "binders": {"B1": {"name": "NCS.1.1 (human IgG1) (antibody, V domains shown)", "VH": "QVQLQESGPRLVKPSETLSLTCSVSGESISSGGYYWTWIRQHPGKGLEWIGNIFDTGSTDYSPSLKTRLTISIDTSKNQFYLRLNSATAADTAVYYCARVGFSLETDRPYYLGLDVWGQGTTVTVSS", "VL": "DIVMTQSPLSLPVTPGEPASISCRSSQSLLHSNGYTYLDWYLQKPGQSPQLLISFTSNRASGVPDRFSGSGSGTYFTLKISRVEAEDVGVYYCMQAVQTPWTFGQGTKVEIK"}, "B2": {"name": "NCS.1.3 (human IgG1) (antibody, V domains shown)", "VH": "B1 VH with N85T", "VL": "B1 VL with S10T, S54Y, T56A, T99S"}, "B3": {"name": "NCS.1 (human IgG1) (antibody, V domains shown)", "VH": "B1 VH with Q5P, D60H, F102Y, L112F", "VL": "B1 VL with S54Y, F55L, T56A"}},
  "molecular_target": "unmodified NA of A/Vietnam/1203/2004 (VN04, H5N1) (Influenza A virus A/Vietnam/1203/2004 …, UniProt Q6DPL2, strain)",
  "test": "ELISA",
  "conditions": "both partners purified",
  "note": "Residue numbers refer to the chain shown, from its start.",
  "data": [
    {"binder": "B1", "values": [
      {"measurement": "binding result", "result": "binds"}
    ]},
    {"binder": "B2", "values": [
      {"measurement": "binding result", "result": "binds"}
    ]},
    {"binder": "B3", "values": [
      {"measurement": "binding result", "result": "binds"}
    ]}
  ]
}
